In patent US20020115606A1 (MYRIAD GENETICS, published 2002):

B1: Presenilin 2 (PS2) amino acids 1-97 (other, UniProt P04386 1-147, looked up)
chain: MKLLSSIEQACDICRLKKLKCSKEKPKCAKCLKNNWECRYSPKTKRSPLTRAHLTEVESRLERLEQLFLLIFPREDLDMILKMDSLQDIKALLTGLFVQDNVNKDAVTDRLASVETDMPLTLRQHRISATSSSEESSNKGQRQLTVSMLTFMASDSEEEVCDERTSLMSAESPTPRSCQEGRQGPEDGENTAQWRSQENEEDGEEDPDRYVCSGVPGRPPGLEEELTLKYGAKHVIMLFVPVTL
notes: also called Presinilin 2
B2: BAT3 (HLA-B associated transcript) amino acids 740-1040 (other, UniProt P04386 1-147, looked up)
chain: MKLLSSIEQACDICRLKKLKCSKEKPKCAKCLKNNWECRYSPKTKRSPLTRAHLTEVESRLERLEQLFLLIFPREDLDMILKMDSLQDIKALLTGLFVQDNVNKDAVTDRLASVETDMPLTLRQHRISATSSSEESSNKGQRQLTVSFEPGADGALGFFGALLSLLCQNFSMVDVVMLLHGHFQPLQRLQPQLRSFFHQHYLGGQEPTPSNIRMATHTLITGLEEYVRESFSLVQVQPGVDIIRTNLEFLQEQFNSIAAHVLHCTDSGFGARLLELCNQGLFECLALNLHCLGGQQMELAAVINGRIRRMSRGVNPSLVSWLTTMMGLRLQVVLEHMPVGPDAILRYVRRVGDPPQPLPEEPMEVQGAERASPEPQRENASPAPGTTAEEAMSRGPPPAPEGGSRDEQDGASAETEPWAAAVPPEWVPIIQQDIQSQRKVKPQPPLSD
B3: glutathione-S-transferase M3 (GST trans. M3) amino acids 15-226 (other, yeast;human, UniProt P04386 768-881, looked up, not shown: small tags and cut ends)
chain: ANFNQSGNIADSSLSFTFTNSSNGPNLITTQTNSQALSQPIASSNVHDNFMNNEITASKIDDGNNSKPLSPGWTDQTAYNAFGITTGMFNTTTMDDVYNYLFDDEDTPPNPKKERGLAHAIRLLLEFTDTSYEEKRYTCGEAPDYDRSQWLDVKFKLDLDFPNLPYLLDGKNKITQSNAILRYIARKHNMCGETEEEKIRVDIIENQVMDFRTQLIRLCYSSDHEKLKPQYLEELPGQLKQFSMFLGKFSWFAGEKLTFVDFLTYDILDQNRIFDPKCLDEFPNLKAFMCRFEALEKIAAYLQSDQFCKMPINNKMAQWGNKPVC
B4: Mint2 amino acids 1-210 (other, UniProt P04386 1-147, looked up)
chain: MKLLSSIEQACDICRLKKLKCSKEKPKCAKCLKNNWECRYSPKTKRSPLTRAHLTEVESRLERLEQLFLLIFPREDLDMILKMDSLQDIKALLTGLFVQDNVNKDAVTDRLASVETDMPLTLRQHRISATSSSEESSNKGQRQLTVSMAHRKLESVGSGMLDHRVRPGPVPHSQEPESEDMELPLEGYVPEGLELAALRPESPAPEEQECHNHSPDGDSSSDYVNNTSEEEDYDEGLPEEEEGITYYIRYCPEDDSYLEGMDCNGEEYLAHSAHPVDTDECQEAVEEWTDSAGPHPHGHEAEGSQDYPDGQLPIPEDEPSVLEAHDQEEDGHYCASKEGYQDYYPEEANGNTGASPY
notes: also called X11 beta
B5: SUR1, type-1 sulfonylurea receptor, amino acids 121-270 (other, yeast;human, UniProt P04386 768-881, looked up, not shown: small tags and cut ends)
chain: ANFNQSGNIADSSLSFTFTNSSNGPNLITTQTNSQALSQPIASSNVHDNFMNNEITASKIDDGNNSKPLSPGWTDQTAYNAFGITTGMFNTTTMDDVYNYLFDDEDTPPNPKKEVVYYHNIETSNFPKLLIALLVYWTLAFITKTIKFVKFLDHAIGFSQLRFCLTGLLVILYGMLLLVEVNVIRVRRYIFFKTPREVKPPEDLQDLGVRFLQPFVNLLSKGTYWWMNAFIKTAHKKPIDLRAIGKLPIAMRALTNYQRLCEAF
B6: Mint1 amino acids 739-837 (other, UniProt P04386 1-147, looked up)
chain: MKLLSSIEQACDICRLKKLKCSKEKPKCAKCLKNNWECRYSPKTKRSPLTRAHLTEVESRLERLEQLFLLIFPREDLDMILKMDSLQDIKALLTGLFVQDNVNKDAVTDRLASVETDMPLTLRQHRISATSSSEESSNKGQRQLTVSIVRCPPVTTVLIRRPDLRYQLGFSVQNGIICSLMRGGIAERGGVRVGHRIIEINGQSVVATPHEKIVHILSNAVGEIHMKTMPAAMYRLLTAQEQPVYI
notes: also called X11 alpha
B7: KIAA0427 amino acids 364-589 (other, yeast;human, UniProt P04386 768-881, looked up, not shown: small tags and cut ends)
chain: ANFNQSGNIADSSLSFTFTNSSNGPNLITTQTNSQALSQPIASSNVHDNFMNNEITASKIDDGNNSKPLSPGWTDQTAYNAFGITTGMFNTTTMDDVYNYLFDDEDTPPNPKKETTTPQQNKMDKLIEILNSMRNNSSDVDTKLTTFMEEAQNSTNSEEMLGEIVRTIYQKAVSDRSFAFTAAKLCDKMALFMVEGTKFRSLLLNMLQKDFTVREELQQQDVERWLGFITFLCEVFGTMRSSTGEPFRVLVCPIYTCLRELLQSQDVKEDAVLCCSMELQSTGRLLEEQLPEMMTELLASARDKMLCPSESMLTRSLLLEVIELHANSWNPLTPPITQYY
B8: casein kinase II (CK2) amino acids 264-351 (other, yeast;human, UniProt P04386 768-881, looked up, not shown: small tags and cut ends)
chain: ANFNQSGNIADSSLSFTFTNSSNGPNLITTQTNSQALSQPIASSNVHDNFMNNEITASKIDDGNNSKPLSPGWTDQTAYNAFGITTGMFNTTTMDDVYNYLFDDEDTPPNPKKEIDLDPHFNDILGQHSRKRWENFIHSENRHLVSPEALDLLDKLLRYDHQQRLTAKEAMEHPYFYPVVKEQSQPCADNAVLSSGLTAAR
B9: CIB amino acids 1-191 (other, UniProt P04386 1-147, looked up)
chain: MKLLSSIEQACDICRLKKLKCSKEKPKCAKCLKNNWECRYSPKTKRSPLTRAHLTEVESRLERLEQLFLLIFPREDLDMILKMDSLQDIKALLTGLFVQDNVNKDAVTDRLASVETDMPLTLRQHRISATSSSEESSNKGQRQLTVSMGGSGSRLSKELLAEYQDLTFLTKQEILLAHRRFCELLPQEQRSVESSLRAQVPFEQILSLPELKANPFKERICRVFSTSPAKDSLSFEDFLDLLSVFSDTATPDIKSHYAFRIFDFDDDGTLNREDLSRLVNCLTGEGEDTRLSASEMKQLIDNILEESDIDRDGTINLSEFQHVISRSPDFASSFKIVL
B10: Fe65 amino acids 360-552 (first phosphotyrosine binding domain, PTB) (other, UniProt P04386 1-147, looked up)
chain: MKLLSSIEQACDICRLKKLKCSKEKPKCAKCLKNNWECRYSPKTKRSPLTRAHLTEVESRLERLEQLFLLIFPREDLDMILKMDSLQDIKALLTGLFVQDNVNKDAVTDRLASVETDMPLTLRQHRISATSSSEESSNKGQRQLTVSPRNTNPGIKCFAVRSLGWVEMTEEELAPGRSSVAVNNCIRQLSYHKNNLHDPMSGGWGEGKDLLLQLEDETLKLVEPQSQALLHAQPIISIRVWGVGRDSGRERDFAYVARDKLTQMLKCHVFRCEAPAKNIATSLHEICSKIMAERRNARCLVNGLSLDHSKLVDVPFQVEFPAPKNELVQKFQVYYLGNVP
B11: stearoyl CoA desaturase (SCD2) amino acids 320-359 (other)
chain: ANFNQSGNIADSSLSFTFTNSSNGPNLITTQTNSQALSQPIASSNVHDNFMNNEITASKIDDGNNSKPLSPGWTDQTAYNAFGITTGMFNTTTMDDVYNYLFDDEDTPPNPKKETTFFIDCMAALGLAYDRKKVSKAAILARIKRTGDGNYKSG
notes: range 768-881;range 320-359; also called Delta(9) desaturase

Legend:
[1] = target: glyceraldehyde-3-phosphate dehydrogenase (GAPDH) amino acids 2-190 (yeast; human, UniProt P04386 768-881; P04406 2-190); test: yeast two-hybrid
Source text: (§1) The principles and methods of the yeast two-hybrid systems have been described in detail (Bartel and Fields, 1997). The following is thus a description of the particular procedure that was used, which was applied to all proteins.
(§2) The cDNA encoding the bait protein was generated by PCR from brain cDNA. Gene-specific primers were synthesized with appropriate tails added at their 5′ ends to allow recombination into the vector pGBTQ. The tail for the forward primer was 5′-[…]-3′ (SEQ ID NO: 1) and the tail for the reverse primer was 5′-[…]-3′ (SEQ ID NO:2). […] The new construct was selected directly in the yeast J693 for its ability to drive tryptophane synthesis (genotype of this strain: Mat α, ade2, his3, leu2, trp1, URA3::GAL1-lacZ LYS2::GAL1-HIS3 gal4del gal80del cyhR2). In these yeast cells, the bait is produced as a C-terminal fusion protein with the DNA binding domain of the transcription factor Gal4 (amino acids 1 to 147). A total human brain (person) cDNA library cloned into the yeast expression vector pACT2 was purchased from Clontech (human brain […] cDNA, cat. # HL4004AH), transformed into the yeast strain J692 (genotype of this strain: Mat α, ade2, his3, leu2, trp1, URA3::GAL1-lacZ LYS2::GAL1-HIS3 gal4del gal80del cyhR2), and selected for the ability to drive leucine synthesis. In these yeast cells, each cDNA is expressed as a fusion protein with the transcription activation domain of the transcription factor Gal4 (amino acids 768 to 881) and a 9 amino acid hemagglutinin epitope tag. J693 cells […] expressing the bait were then mated with J692 cells […] expressing proteins from the brain library. The resulting diploid yeast cells expressing proteins interacting with the bait protein were selected for the ability to synthesize tryptophane, leucine, histidine, and β-galactosidase.

[2] = target: transthyretin (TTH) amino acids 7-148 (yeast; human, UniProt P04386 768-881; P02766 7-147); test: yeast two-hybrid
Source text: as §1, §2

[3] = target: Focal adhesion kinase (FAK) amino acids 724-1052 (yeast, UniProt P04386 1-147; Q05397 724-1052); test: yeast two-hybrid
Source text: as §1, §2

[4] = target: phosphodiesterase 9A (PDE-9A) amino acids 269-593 (yeast; human, UniProt P04386 768-881; O76083 269-593); test: yeast two-hybrid
Source text: as §1, §2

[5] = target: T1, Focal adhesion kinase 2 (FAK2) amino acids 673-866 (yeast, UniProt P04386 1-147; Q14289 673-866); test: yeast two-hybrid
T1 construct: also called PYK2; CAKβ
Source text: as §1, §2

[6] = target: T2, glutamine synthase (GS) amino acids 49-212 (yeast; human, UniProt P04386 768-881; P15104 49-212); test: yeast two-hybrid
T2 construct: also called glutamine synthetase; glutamate ammonia ligase
Source text: as §1, §2

[7] = target: T3, Mint1 amino acids 447-758 (yeast, UniProt P04386 1-147; Q02410 447-758); test: yeast two-hybrid
T3 construct: also called X11 alpha
Source text: as §1, §2

[8] = target: T4, mixed lineage kinase 2 (MLK2) amino acids 305-549 (yeast; human, UniProt P04386 768-881; Q02779 305-549); test: yeast two-hybrid
T4 construct: also called MST; MAP3K10
Source text: as §1, §2

[9] = target: T5, PN7740 amino acids 27-322 (yeast; human, UniProt P04386 768-881); test: yeast two-hybrid
T5 construct: also called novel phosphatase
T5 sequence: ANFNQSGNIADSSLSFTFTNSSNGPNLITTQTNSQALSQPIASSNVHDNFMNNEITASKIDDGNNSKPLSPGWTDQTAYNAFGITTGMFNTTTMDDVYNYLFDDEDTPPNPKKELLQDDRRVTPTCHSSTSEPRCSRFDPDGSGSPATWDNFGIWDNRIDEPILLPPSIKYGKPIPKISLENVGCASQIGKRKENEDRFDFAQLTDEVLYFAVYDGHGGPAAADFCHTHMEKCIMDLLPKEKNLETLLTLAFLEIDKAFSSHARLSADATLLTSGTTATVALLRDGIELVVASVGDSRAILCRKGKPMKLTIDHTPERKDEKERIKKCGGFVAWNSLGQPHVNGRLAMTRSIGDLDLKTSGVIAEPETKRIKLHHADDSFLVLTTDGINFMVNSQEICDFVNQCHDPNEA
Source text: as §1, §2

CIB amino acids 1-191 = target: B9; test: yeast two-hybrid, Gal4, human brain cDNA library

## B1
[1]
  binding result: binds

## B2
[2]
  binding result: binds

## B3
[3]
  binding result: binds

## B4
[4]
  binding result: binds

## B5
[5]
  binding result: binds

## B6
[6]
  binding result: binds

## B7
[7]
  binding result: binds

## B8
[3]
  binding result: binds

## B9
[8]
  binding result: binds

## B10
[9]
  binding result: binds

## B11
CIB amino acids 1-191
  binding result: binds
